Here are results for 1 protein from patent publication US4734420A, “Anti-hypertensive agents” (priority 1980, dated 1988).

Substrate in this data set: CC(C)C[C@H](NC(=O)[C@H](Cc1cnc[nH]1)NC(=O)CNC(=O)c1ccccc1)C(=O)O
Kind of data set: purified protein, by the assay type. The format is biochemical. Conditions: other: substrate hippuryl-His-Leu, human urinary ACE, pH 8.0. An excerpt: The role of ACE in the pathogenesis of hypertension has prompted a search for inhibitors of the enzyme that could act as antihypertensive drugs. See for example U.S. Pat. Nos. 3,891,616, 3,947,575, 4,052,511 and 4,053,651. […]. No. 4,046,889 to Ondetti et al., issued Sept. 6, 1977, and in scientific articles by Cushman, D. W. et al., Biochemistry 16, 5484 (1977), and by Ondetti, M. et al., Science 196, 441 (1977). […]. These factors include the source of enzyme, its purity, the substrate used and its concentration, and the composition of the assay buffer. All I50 data reported herein have been performed with the same assay system and same enzyme (human urinary ACE) and with an approximately 1/2 Km level of substrate and are therefore internally consistent. Discrepancies with data obtained by other workers may be observed. Indeed such discrepancies do exist in the literature, for unknown reasons. See, for example, the I50 values for BPP9a reported by Cushman, D. W., et al., Experientia 29, 1032 (1973) and by Dorer, F. E., et al., Biochim. Biophys. Acta 429, 220 (1976).
The inhibitory potency of N^α -[3-(L-α-glutamylthio)-2-D-methyl-propanoyl]-L-proline in vitro was measured in the following assay. […] The enzyme was assayed in 0.05M Hepes buffer, pH 8.0 containing 0.1M NaCl and 0.75M Na2 SO4. […]

B1: Human urinary ACE (Homo sapiens) (protein)
chain: LDPGLQPGNFSADEAGAQLFAQSYNSSAEQVLFQSVAASWAHDTNITAENARRQEEAALLSQEFAEAWGQKAKELYEPIWQNFTDPQLRRIIGAVRTLGSANLPLAKRQQYNALLSNMSRIYSTAKVCLPNKTATCWSLDPDLTNILASSRSYAMLLFAWEGWHNAAGIPLKPLYEDFTALSNEAYKQDGFTDTGAYWRSWYNSPTFEDDLEHLYQQLEPLYLNLHAFVRRALHRRYGDRYINLRGPIPAHLLGDMWAQSWENIYDMVVPFPDKPNLDVTSTMLQQGWNATHMFRVAEEFFTSLELSPMPPEFWEGSMLEKPADGREVVCHASAWDFYNRKDFRIKQCTRVTMDQLSTVHHEMGHIQYYLQYKDLPVSLRRGANPGFHEAIGDVLALSVSTPEHLHKIGLLDRVTNDTESDINYLLKMALEKIAFLPFGYLVDQWRWGVFSGRTPPSRYNFDWWYLRTKYQGICPPVTRNETHFDAGAKFHVPNVTPYIRYFVSFVLQFQFHEALCKEAGYEGPLHQCDIYRSTKAGAKLRKVLQAGSSRPWQEVLKDMVGLDALDAQPLLKYFQPVTQWLQEQNQQNGEVLGWPEYQWHPPLPDNYPEGIDLVTDEAEASKFVEEYDRTSQVVWNEYAEANWNYNTNITTETSKILLQKNMQIANHTLKYGTQARKFDVNQLQNTTIKRIIKKVQDLERAALPAQELEEYNKILLDMETTYSVATVCHPNGSCLQLEPDLTNVMATSRKYEDLLWAWEGWRDKAGRAILQFYPKYVELINQAARLNGYVDAGDSWRSMYETPSLEQDLERLFQELQPLYLNLHAYVRRALHRHYGAQHINLEGPIPAHLLGNMWAQTWSNIYDLVVPFPSAPSMDTTEAMLKQGWTPRRMFKEADDFFTSLGLLPVPPEFWNKSMLEKPTDGREVVCHASAWDFYNGKDFRIKQCTTVNLEDLVVAHHEMGHIQYFMQYKDLPVALREGANPGFHEAIGDVLALSVSTPKHLHSLNLLSSEGGSDEHDINFLMKMALDKIAFIPFSYLVDQWRWRVFDGSITKENYNQEWWSLRLKYQGLCPPVPRTQGDFDPGAKFHIPSSVPYIRYFVSFIIQFQFHEALCQAAGHTGPLHKCDIYQSKEAGQRLATAMKLGFSRPWPEAMQLITGQPNMSASAMLSYFKPLLDWLRTENELHGEKLGWPQYNWTPNSAR
notes: from tissue; host or cells: human urine
The term Km denotes the concentration of substrate that gives half-maximal velocity. As to B1, the Km was 200 µM.
